Patent US20230113734A1

Molecular target: SARS-CoV-2 S protein (spike protein) (SARS-CoV-2) (UniProt P0DTC2)
Assay: ELISA, S proteins on plate (the reference itself)

## positive control antibody (CR3022)
  Binding ability (relative to positive control antibody): 1
